In patent EP4703474A1, “ANTI-LRRC15 ANTIBODY” (priority 2023, dated 2024):

How the values were obtained:
[1] = tested on: Head and neck carcinoma cell line Detroit 562; assay: In vivo antitumor effect, Detroit 562 subcutaneous transplant model; details: 0.4 mg/kg, tail vein, on Day 10, female SCID mice
Method: (§1) The antitumor effects of the antibody-drug conjugates were evaluated by using animal models in which cells of a human tumor cell line had been transplanted into immunodeficient mice, or cells of a mouse tumor cell line had been transplanted into immunocompetent mice. 4 to 6 Week-old SCID mice (CB17/Icr-Prkdc[scid]/CrlCrlj, Jackson Laboratory Japan, Inc.), NSG mice (NOD.Cg-Prkdcscid Il2rgtm1Wjl/SzJ, Jackson Laboratory Japan, Inc.), or B6J mice (C57BL/6J, Jackson Laboratory Japan, Inc.) were habituated for 3 days or more under SPF conditions before experimental use. The mice were fed with sterilized solid feed and given sterilized tap water. The major and minor diameters of the transplanted tumors were measured twice a week with an electronic digital caliper (Mitutoyo Corporation), and the estimated tumor volume was calculated using the following formula. Estimated tumor volume (mm^3) = 1/2 × major diameter (mm) × [minor diameter (mm)]^2 All antibody-drug conjugates were diluted with ABS and administered into the tail vein at doses shown in each Example. In addition, ABS (vehicle) or control hIgG-PBD prepared in Reference Example 4 was administered as the control group, in a similar manner. 5 to 6 Mice were used per group in the experiment. To analyze the LRRC15 expression in mouse tumor models, immunohistochemical staining of LRRC15 was performed. […]

[2] = tested on: Esophageal carcinoma cell line EC-GI-10; assay: In vivo antitumor effect, EC-GI-10 subcutaneous transplant model; details: 0.4 mg/kg, tail vein, on Day 35, female NSG mice
Method: as §1

B1: H02L01-V1-PBD (conjugate)
heavy: EVQLVESGGGLVQPGGSLRLSCAASGFTFRDYYMAWVRQAPGKGLEWVSSIGFDESRTYYADSVKGRFTISRDDSKNTLYLQMNSLRAEDTAVYYCARHGVSKYSGDNWFAYWGQGTLVTVSSASTKGPSVFPLAPSSKSTSGGTAALGCLVKDYFPEPVTVSWNSGALTSGVHTFPAVLQSSGLYSLSSVVTVPSSSLGTQTYICNVNHKPSNTKVDKKVEPKSCDKTHTCPPCPAPEAAGGPSVFLFPPKPKDTLMISRTPEVTCVVVDVSHEDPEVKFNWYVDGVEVHNAKTKPREEQYNSTYRVVSVLTVLHQDWLNGKEYKCKVSNKALAAPIEKTISKAKGQPREPQVYTLPPSREEMTKNQVSLTCLVKGFYPSDIAVEWESNGQPENNYKTTPPVLDSDGSFFLYSKLTVDKSRWQQGNVFSCSVMHEALHNHYTQKSLSLSPGK
light: DIQMTQSPSSLSASVGDRVTITCKSSQGLLYSGDQKNYLAWYQQKPGKAPKLLIYWASTRQSGVPSRFSGSGSGTDFTLTISSLQPEDFATYYCQQYYDPPYTFGQGTKVEIKRTVAAPSVFIFPPSDEQLKSGTASVVCLLNNFYPREAKVQWKVDNALQSGNSQESVTEQDSKDSTYSLSSTLTLSKADYEKHKVYACEVTHQGLSSPVTKSFNRGEC
antitumor effect (estimated tumor volume) [1]: antitumor activity higher than that of the vehicle and control hIgG-PBD | antitumor effect (estimated tumor volume) [2]: antitumor activity higher than that of the vehicle and control hIgG-PBD
